Values of other authors, collected in PMC3114466.
Values joined by “and” are separate entries in the source; they are usually repeats but may differ in a detail not shown here. Equal values may be shown once.

Test system: His
Conditions: free model compound in solution (inferred)

Substance: Capped histidine model compound (acetyl-histidine-methylamide) (synthetic)
- pKa: 6.42 and 6.92 and 6.53
